Consider four molecules from PMC9813358, “Insights into the GSDMB-mediated cellular lysis and its targeting by IpaH7.8” (Nature Communications, 2023).

To fix the notation:
B3: IpaH7.8 protein (residues 23–565) (enzyme)
chain: SNEHYLRILTEWEKNSSPGEERGIAFNRLSQCFQNQEAVLNLSDLNLTSLPELPKHISALIVENNKLTSLPKLPAFLKELNADNNRLSVIPELPESLTTLSVRSNQLENLPVLPNHLTSLFVENNRLYNLPALPEKLKFLHVYYNRLTTLPDLPDKLEILCAQRNNLVTFPQFSDRNNIRQKEYYFHFNQITTLPESFSQLDSSYRINISGNPLSTRVLQSLQRLTSSPDYHGPQIYFSMSDGQQNTLHRPLADAVTAWFPENKQSDVSQIWHAFEHEEHANTFSAFLDRLSDTVSARNTSGFREQVAAWLEKLSASAELRQQSFAVAADATESCEDRVALTWNNLRKTLLVHQASEGLFDNDTGALLSLGREMFRLEILEDIARDKVRTLHFVDEIEVYLAFQTMLAEKLQLSTAVKEMRFYGVSGVTANDLRTAEAMVRSREENEFTDWFSLWGPWHAVLKRTEADRWAQAEEQKYEMLENEYSQRVADRLKASGLSGDADAEREAGAQVMRETEQQIYRQLTDEVLALRLSENGSRLHHS
notes: IpaH7.8, type III secretion effector and E3 ubiquitin ligase of Shigella flexneri; residues 23-565; synthesized fragment; Limits 23-565 are stated for the SEC experiment; source: E. coli BL21 (DE3), purified (Ni-NTA, anion exchange, SEC); not shown: His, N-terminal, cleaved

Test [1] concerns the target B3. Nature of the test: ITC; MicroCal PEAQ-ITC, 25 °C; IpaH7.8 proteins injected into the cell containing GSDMB or GSDMD proteins; 25 mM Tris-HCl pH 8.0, 150 mM NaCl unless otherwise stated (one titration of IpaH7.8 into GSDMB in a high salt buffer). Conditions: both partners purified. In general terms: Isothermal titration calorimetry measures the heat released or taken up as one component is titrated into another.

In test [2] the target is T1, GSDMB (residues 1-411) (human, UniProt Q8TAX9-1 1-411).
T1 chain: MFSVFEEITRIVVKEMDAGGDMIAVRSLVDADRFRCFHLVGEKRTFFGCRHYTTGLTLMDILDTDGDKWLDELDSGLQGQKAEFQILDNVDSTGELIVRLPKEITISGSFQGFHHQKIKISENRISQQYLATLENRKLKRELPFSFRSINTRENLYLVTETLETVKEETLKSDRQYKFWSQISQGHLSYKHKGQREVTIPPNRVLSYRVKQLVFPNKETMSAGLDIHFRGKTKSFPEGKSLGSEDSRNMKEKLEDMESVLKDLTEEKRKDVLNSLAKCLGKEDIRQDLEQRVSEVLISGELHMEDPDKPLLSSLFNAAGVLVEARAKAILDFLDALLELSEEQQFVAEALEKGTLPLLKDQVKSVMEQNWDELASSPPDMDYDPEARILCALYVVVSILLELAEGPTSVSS
Nature of the test: ITC; 500 mM NaCl.

Test [3] deals with T1, GSDMB (residues 1-411). Nature of the test: ITC.
The target in test [4] is T2, GSDMB (residues 1-411) (human, UniProt Q8TAX9-1 1-411).
T2 construct: residues 1-411; For the crystal the complex was obtained by co-transforming the GSDMB and IpaH7.8 plasmids; limits 1-411 are stated for the crystallised protein; also called gasdermin B; WT GSDMB; source: E. coli BL21 (DE3), purified (Ni-NTA, anion exchange, SEC); not shown: His, N-terminal, cleaved; MBP, N-terminal, cleaved
T2 sequence: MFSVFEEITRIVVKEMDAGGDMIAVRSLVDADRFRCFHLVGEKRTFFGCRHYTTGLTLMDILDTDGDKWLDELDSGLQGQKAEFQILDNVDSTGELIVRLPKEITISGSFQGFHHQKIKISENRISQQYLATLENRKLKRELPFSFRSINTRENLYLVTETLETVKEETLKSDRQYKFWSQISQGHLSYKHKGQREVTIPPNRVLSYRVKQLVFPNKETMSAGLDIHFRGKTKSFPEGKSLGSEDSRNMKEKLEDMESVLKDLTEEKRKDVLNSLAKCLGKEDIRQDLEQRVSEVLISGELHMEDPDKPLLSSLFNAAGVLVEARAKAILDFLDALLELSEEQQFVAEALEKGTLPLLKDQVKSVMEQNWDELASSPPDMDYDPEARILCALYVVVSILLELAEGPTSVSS
Nature of the test: ITC; MicroCal PEAQ-ITC, 25 °C; IpaH7.8 proteins injected into the cell containing GSDMB or GSDMD proteins; 25 mM Tris-HCl pH 8.0, 150 mM NaCl unless otherwise stated (one titration of IpaH7.8 into GSDMB in a high salt buffer). Conditions: both partners purified.

B1: human GSDMD (natural protein)
chain: MGSAFERVVRRVVQELDHGGEFIPVTSLQSSTGFQPYCLVVRKPSSSWFWKPRYKCVNLSIKDILEPDAAEPDVQRGRSFHFYDAMDGQIQGSVELAAPGQAKIAGGAAVSDSSSTSMNVYSLSVDPNTWQTLLHERHLRQPEHKVLQQLRSRGDNVYVVTEVLQTQKEVEVTRTHKREGSGRFSLPGATCLQGEGQGHLSQKKTVTIPSGSTLAFRVAQLVIDSDLDVLLFPDKKQRTFQPPATGHKRSTSEGAWPQLPSGLSMMRCLHNFLTDGVPAEGAFTEDFQGLRAEVETISKELELLDRELCQLLLEGLEGVLRDQLALRALEEALEQGQSLGPVEPLDGPAGAVLECLVLSSGMLVPELAIPVVYLLGALTMLSETQHKLLAEALESQTLLGPLELVGSLLEQSAPWQERSTMSLPPGLLGNSWGEGAPAWVLLDECGLELGEDTPHVCWEPQAQGRMCALYASLALLSGLSQEPH
notes: also called hGSDMD; WT hGSDMD; source: E. coli BL21 (DE3), purified (same protocol as GSDMB); not shown: His, N-terminal, cleaved; MBP, N-terminal, cleaved
Regarding B1, the binding result in test [1] is reported as “binds”.

B2: hGSDMD S124R (natural protein, human, UniProt P57764 1-484, looked up)
chain: MGSAFERVVRRVVQELDHGGEFIPVTSLQSSTGFQPYCLVVRKPSSSWFWKPRYKCVNLSIKDILEPDAAEPDVQRGRSFHFYDAMDGQIQGSVELAAPGQAKIAGGAAVSDSSSTSMNVYSLRVDPNTWQTLLHERHLRQPEHKVLQQLRSRGDNVYVVTEVLQTQKEVEVTRTHKREGSGRFSLPGATCLQGEGQGHLSQKKTVTIPSGSTLAFRVAQLVIDSDLDVLLFPDKKQRTFQPPATGHKRSTSEGAWPQLPSGLSMMRCLHNFLTDGVPAEGAFTEDFQGLRAEVETISKELELLDRELCQLLLEGLEGVLRDQLALRALEEALEQGQSLGPVEPLDGPAGAVLECLVLSSGMLVPELAIPVVYLLGALTMLSETQHKLLAEALESQTLLGPLELVGSLLEQSAPWQERSTMSLPPGLLGNSWGEGAPAWVLLDECGLELGEDTPHVCWEPQAQGRMCALYASLALLSGLSQEPH
notes: GSDMD, human, isoform 1 of UniProtKB P57764; construct as m34; also called hGSDMD bearing the S124R mutation; source: E. coli BL21 (DE3), purified (same protocol as GSDMB); not shown: His, N-terminal, cleaved; MBP, N-terminal, cleaved
As to B2, the binding result in test [1] is “binds”. In the case of B3, the equilibrium dissociation constant (Kd) (as a rule, the equilibrium constant for the complex coming apart) with GSDMB (residues 1-411) [2] amounted to 163 nM; with GSDMB (residues 1-411) [3], 94 nM. Also, in the test with GSDMB (residues 1-411) [4], the “binding affinity in a high salt buffer against that in the standard buffer” value is 0.5 fold.

B4: N-terminal LRR domain (residues 23–264) of IpaH7.8 (domain or fragment)
chain: SNEHYLRILTEWEKNSSPGEERGIAFNRLSQCFQNQEAVLNLSDLNLTSLPELPKHISALIVENNKLTSLPKLPAFLKELNADNNRLSVIPELPESLTTLSVRSNQLENLPVLPNHLTSLFVENNRLYNLPALPEKLKFLHVYYNRLTTLPDLPDKLEILCAQRNNLVTFPQFSDRNNIRQKEYYFHFNQITTLPESFSQLDSSYRINISGNPLSTRVLQSLQRLTSSPDYHGPQIYFSMSD
As to B4, the dissociation constant (Kd) with GSDMB (residues 1-411) [3] stood at 90 nM.
